Assays:
[1] = target: αV/β5 integrin receptor complex (Homo sapiens, UniProt P06756+P18084); test: Co-immunoprecipitation on a nickel ion column; type: binding; settings: 100 nM Fc-fused RUCILP2, 5 nM His-tag αV/β5 integrin
Procedure: FIG. 6. Co-immunoprecipitation on a nickel ion column to validate binding of recombinant RUCILP2 to the αV/β5 integrin receptor complex. 100 nM Fc-fused RUCILP2 was incubated with 5 nM of His-tag αV/β5 integrin receptor, followed by immunoprecipitation using nickel-nitrilotriacetic acid (Ni-NTA) agarose. Precipitated integrins and co-precipitated irisin were analyzed by immuno-blot analysis. Elution indicates a mixture of disassociated integrin and RUCILP2 from the integrin-RUCILP2 complex. Before loading, samples were a mixture of co-incubation of RUCILP2 and integrin receptor.
• Step 1: Binding of integrin and RUCILP2. One hundred nM FC-tagged RUCILP2 was incubated with 5 nM of the indicated his-tag integrin avb5 in a final volume of 500ul in 1.5 ml Protein LoBind Tubes (Eppendorf, 022431081) for 5/30/90 minutes at room temperature under rotation. • Step 2: After rotation, Ni spin column (ThermoFisher Scientific, R901-01) was applied to immunoprecipitate integrins. In details, Add 500 μl of FC-RUCILP2-integrin-His protein complex to the column. Mix end-over-end at 4° C. for 15 minutes. […] Precipitated integrin was detected by immuno-blot analysis against his tag. Co-precipitated RUCILP2 was detected by immunoblot analysis against FC-tag. […]

adipocytes = test: Oil red O staining of lipids in adipocytes; type: cell-based, mouse
Procedure: FIG. 10. […] Staining was performed on 10% formalin-fixed adipocytes according to the manufacturer's protocol.
Oil red O staining of lipids in adipocytes was performed according to the protocol below: • (1) Fixation—Remove the medium and gently wash the cells twice with PBS. Add formalin (10%) to the cells and incubate for 30 minutes • (2) Discard the formalin and wash the cells twice using sterile water. Add 60% isopropanol to the cells and incubate for 5 minutes • (3) Discard 60% isopropanol and cover the cells evenly with Oil Red O Working Solution. Rotate the plate or dish, and incubate for 15 minutes • (4) Discard the Oil Red O solution and wash the cells four times with water until no excess stain is seen • (5) Add hematoxylin to the cells and incubate for 1 minute. Discard hematoxylin and wash the cells four times with water • (6) Cover the cells with sterile water and view under microscope. Lipid droplets appear red, and nuclei appear blue

inguinal fat = test: Daily intraperitoneal injection of RUCILP2 into chow-fed mice, gene expression in inguinal fat; type: in vivo, mouse; settings: 1 mg/kg i.p. daily, 7 days, normal chow
Procedure: FIG. 17. […] No effects on expression of marker genes for lipolysis. Recombinant RUCILP2 was daily injected intraperitoneal at a concentration of 1 mg/kg into 9-week-old wild type C57BL/6N mice for one week. The mRNA levels of indicated genes were analyzed by qRT-PCR. Data were expressed as mean±SEM, *, p<0.05; **, p<0.01; ***, p<0.001, when compared with phosphate-buffered saline (PBS) group, n=9 animals/group.
Mice (20 male wild type C57BL/6N, 8 weeks of age, Janvier) were single-housed at 23±1° C. on a 12-hour light/12-hour dark cycle with access to food and water ad libitum. After 7 days of acclimatization on a standard chow diet (Altromin 1328 diet contains 11% of fat, 24% of protein, and 65% of carbohydrates. This diet is a cereal-based (soy, wheat, corn) fixed formula which is free of alfalfa and fish/animal meal and deficient in nitrosamines) to avoid stress, the mice received daily intraperitoneal injection of 1 mg/kg recombinant RUCILP2, and saline, respectively, for 7 days. All animals were then sacrificed, and subcutaneous fat pads and liver tissue were collected. The mRNA levels of thermogenic genes including Ucp1, Elovl3, Cidea, and Prdm16 as well as lipogenic genes including Acaca and Fasn in inguinal fat were analyzed by qRT-PCR as described below.
RNA extraction and real-time PCR analysis: Total RNA was extracted from tissues using Trizol reagent (Invitrogen) according to the manufacturer's instructions, followed by concentration measurement. 1 μg RNA was transcribed to cDNA using the Reverse Transcription System (Promega). Real-time PCR was performed using the LC480 detection system (Roche Diagnostics) and SYBR Green I Supermix (Takara). Samples were run in duplicate in a single 384-well reaction plate. Data were normalized to the housekeeping Rp136, TBP or GAPDH genes and analyzed according to ΔΔCT method.

Sequence of αV/β5 integrin receptor complex (P06756 31-992 limits assumed): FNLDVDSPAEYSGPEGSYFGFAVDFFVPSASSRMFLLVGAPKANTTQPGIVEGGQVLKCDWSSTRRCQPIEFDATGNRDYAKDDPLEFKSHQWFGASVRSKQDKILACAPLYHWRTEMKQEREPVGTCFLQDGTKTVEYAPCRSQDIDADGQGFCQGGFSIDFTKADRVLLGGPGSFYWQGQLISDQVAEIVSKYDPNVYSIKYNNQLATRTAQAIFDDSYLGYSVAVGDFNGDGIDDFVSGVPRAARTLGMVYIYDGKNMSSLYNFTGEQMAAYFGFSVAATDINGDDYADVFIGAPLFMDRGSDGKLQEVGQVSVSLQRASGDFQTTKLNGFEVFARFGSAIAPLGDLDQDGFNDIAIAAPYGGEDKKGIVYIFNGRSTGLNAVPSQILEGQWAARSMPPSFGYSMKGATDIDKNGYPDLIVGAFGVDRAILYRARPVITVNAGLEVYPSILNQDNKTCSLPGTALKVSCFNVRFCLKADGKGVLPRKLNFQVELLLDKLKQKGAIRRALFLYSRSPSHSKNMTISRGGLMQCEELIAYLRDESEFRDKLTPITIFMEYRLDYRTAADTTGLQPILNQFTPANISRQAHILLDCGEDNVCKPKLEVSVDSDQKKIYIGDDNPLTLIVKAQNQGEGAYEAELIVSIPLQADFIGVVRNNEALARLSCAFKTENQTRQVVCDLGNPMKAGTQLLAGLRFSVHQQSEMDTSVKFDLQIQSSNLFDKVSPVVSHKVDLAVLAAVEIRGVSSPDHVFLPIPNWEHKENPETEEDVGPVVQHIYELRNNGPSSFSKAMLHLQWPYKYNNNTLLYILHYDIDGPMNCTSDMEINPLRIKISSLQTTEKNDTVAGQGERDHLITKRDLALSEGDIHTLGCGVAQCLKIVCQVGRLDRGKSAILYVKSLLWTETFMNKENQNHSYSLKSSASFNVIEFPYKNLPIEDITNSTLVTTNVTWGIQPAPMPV
Sequence of αV/β5 integrin receptor complex (P18084 24-719 limits assumed): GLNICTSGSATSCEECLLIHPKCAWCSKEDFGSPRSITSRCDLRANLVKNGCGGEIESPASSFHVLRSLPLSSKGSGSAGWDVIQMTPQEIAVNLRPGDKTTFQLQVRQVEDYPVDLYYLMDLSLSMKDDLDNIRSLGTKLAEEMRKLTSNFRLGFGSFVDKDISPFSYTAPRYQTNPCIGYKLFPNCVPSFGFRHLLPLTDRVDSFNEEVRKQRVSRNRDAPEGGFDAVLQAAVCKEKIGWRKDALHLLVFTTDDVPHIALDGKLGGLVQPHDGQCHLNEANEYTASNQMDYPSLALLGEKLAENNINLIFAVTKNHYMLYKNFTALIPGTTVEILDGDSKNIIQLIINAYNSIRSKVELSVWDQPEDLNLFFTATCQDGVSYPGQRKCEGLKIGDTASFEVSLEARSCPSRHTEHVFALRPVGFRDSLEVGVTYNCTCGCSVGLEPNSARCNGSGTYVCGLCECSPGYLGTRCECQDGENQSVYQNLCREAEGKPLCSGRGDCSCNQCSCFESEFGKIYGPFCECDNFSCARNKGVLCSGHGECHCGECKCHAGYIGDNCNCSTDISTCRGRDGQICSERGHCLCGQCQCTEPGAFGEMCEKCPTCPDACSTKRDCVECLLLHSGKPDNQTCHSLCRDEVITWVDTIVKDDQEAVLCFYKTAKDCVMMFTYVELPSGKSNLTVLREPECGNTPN

B1: RUCILP2: 87 amino acid irisin-like polypeptide cleaved from the Ruminococcus torques FNDC5-like protein RUMTOR_00181; recombinant, 6-His-tagged from E. coli (protein)
chain: APVDVKVSEITETSAKASWKNAADGKEAAGYNVYVDGVKLNKELLTEASCGLTNLKAETTYFVEVTAVDAAGNESVKSEKVTFKTLK
modifications: 6-His tag; Ruminococcus torques
notes: 87 amino acid irisin-like polypeptide cleaved from the Ruminococcus torques FNDC5-like protein RUMTOR_00181; recombinant, 6-His-tagged from E. coli
binding to αV/β5 integrin receptor (co-immunoprecipitation) [1]: direct interaction | lipid content in adipocytes (oil red O staining) (adipocytes): reduces lipid content | expression of a gene involved in lipogenesis (inguinal fat): reduces expression | expression of genes involved in thermogenesis (inguinal fat): induces expression | expression of marker genes for lipolysis (inguinal fat): No effects

From patent publication US20240336661A1, “PEPTIDES DERIVED FROM RUMINOCOCCUS TORQUES” (University of Copenhagen, priority 2021, published 2024)
